Assay results taken from patent US20180207291A1.
Like-named read-outs stand apart in the source and are kept apart here. Values belong to the substance of their own block, whether it stands above or below them.

Experiments:
[1] = target: Human Enolase 241cit peptide as offered to human PBMCs (human)
[2] = target: Human Enolase 241 wt peptide as offered to human PBMCs (human)
[3] = target: Human Enolase 241cit peptide as offered to human PBMCs (human); remark: listed apart in the source
[4] = target: Mouse Enolase 241-260 citrullinated peptide presented by HLA-DR4 (mouse; human)

- Thymidine proliferation assay, proliferation index (proliferation index) [1]: 2.7
Substance: PBMCs of healthy donor 2 (cells without a defined receptor)

- Thymidine proliferation assay, proliferation index (proliferation index) [2]: 1.2
- Thymidine proliferation assay, proliferation index (proliferation index) [1]: 28.6
Substance: PBMCs of healthy donor 1 (cells without a defined receptor)

- Thymidine proliferation assay, proliferation index (proliferation index) [3]: 28
Substance: PBMCs of healthy donor 4 (cells without a defined receptor)

- IFNγ Elispot (/million splenocytes) [4]: 180
Substance: Splenocytes of HLA-DR4 transgenic mice immunised with a DNA construct encoding mouse enolase (cells without a defined receptor)
